We go through three sequences from article PMC5437177.

This data set deals with T1, ABI5 (Arabidopsis thaliana) (UniProt Q9SJN0).
T1 sequence: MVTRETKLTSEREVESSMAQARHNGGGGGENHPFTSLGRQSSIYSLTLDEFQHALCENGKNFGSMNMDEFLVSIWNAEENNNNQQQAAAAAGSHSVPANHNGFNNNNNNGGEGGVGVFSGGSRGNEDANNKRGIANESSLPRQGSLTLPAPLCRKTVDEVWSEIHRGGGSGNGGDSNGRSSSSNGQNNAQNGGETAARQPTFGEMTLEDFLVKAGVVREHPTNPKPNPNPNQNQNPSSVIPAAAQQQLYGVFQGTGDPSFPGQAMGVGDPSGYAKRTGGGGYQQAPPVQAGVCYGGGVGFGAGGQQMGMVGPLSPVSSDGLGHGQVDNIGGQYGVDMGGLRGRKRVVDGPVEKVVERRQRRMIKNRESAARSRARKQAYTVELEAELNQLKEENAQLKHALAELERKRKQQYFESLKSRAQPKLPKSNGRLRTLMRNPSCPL
Kind of data set: EMSA. The conditions noted are these: 25 mM HEPES pH 8.0, 40 mM KCl, 5 mM MgCl2, 1 mM DTT, 1 mM EDTA, 8% glycerol, 1 ug/uL poly(dI-dC), 30 min room temperature; 5% native PAGE at 4 C. In general terms: In EMSA bound probe runs differently from free probe, usually more slowly.
“TCCTGAAATGGATCAACAATTGTCTAATTATGGTATAGTATCTGGCGAAATCAAAGACGATATCATCCACACGTAATTAGTTTGACTATTAATACGAGGATTATCATTTGGATAAGGATTAACAAAGACAAAACACATACGTGTTTTGGTGTTGAGCTAAAATAAGATATTTTGGCTCTCGCTATAAA (double strand) [pCAT1 wild type probe (-296/-108)]”: the binding result is reported as “binds”.
Turning to “TCCTGAAATGGATCAACAATTGTCTAATTATGGTATAGTATCTGGCGAAATCAAAGACGATATCATCCACTTTTAATTAGTTTGACTATTAATACGAGGATTATCATTTGGATAAGGATTAACAAAGACAAAACACATACGTGTTTTGGTGTTGAGCTAAAATAAGATATTTTGGCTCTCGCTATAAA (double strand) [pCAT1 box1 mutation probe]”, the binding result was “binds more weakly”.
Then “TCCTGAAATGGATCAACAATTGTCTAATTATGGTATAGTATCTGGCGAAATCAAAGACGATATCATCCACACGTAATTAGTTTGACTATTAATACGAGGATTATCATTTGGATAAGGATTAACAAAGACAAAACACATTTTTGTTTTGGTGTTGAGCTAAAATAAGATATTTTGGCTCTCGCTATAAA (double strand) [pCAT1 box2 mutation probe]”, with “binds more weakly”.
